Test results from article PMC9033776.
pKd: −log10 of the molar value.

Legend:
[1] = target: BRD4-bromo2 domain (amino acids 351–457) (UniProt O60885); experiment: ITC; 3 mM H2A.Z peptides titrated into 0.3 mM bromodomains; 25 °C; 20 mM Hepes-Na pH 7.5, 100 mM NaCl; One Set of Binding Sites model
[2] = target: BRD4-bromo1 (amino acids 54–168) (UniProt O60885); experiment: as above

| pKd [1] | pKd [2] | Substance |
| --- | --- | --- |
| 3.09 | 2.32 | di-acetylated H2A.Z (1–15) K4acK7ac peptide (from UniProt P0C0S5 2-16) |
| 3.22 | 2.64 | tri-acetylated H2A.Z (1–15) K4acK7acK11ac peptide (from UniProt P0C0S5 2-16) |
